The values below come from US20250019454A1 (BIOCYTOGEN PHARMACEUTICALS BEIJING, published 2025).

Residue numbers refer to the chain shown, from its start.

For assay [1], the target named is T1, human TNFR2 (expressed on cells) (human, UniProt P20333 23-461).
T1 construct: also called hTNFR2; human TNF Receptor 2
T1 sequence: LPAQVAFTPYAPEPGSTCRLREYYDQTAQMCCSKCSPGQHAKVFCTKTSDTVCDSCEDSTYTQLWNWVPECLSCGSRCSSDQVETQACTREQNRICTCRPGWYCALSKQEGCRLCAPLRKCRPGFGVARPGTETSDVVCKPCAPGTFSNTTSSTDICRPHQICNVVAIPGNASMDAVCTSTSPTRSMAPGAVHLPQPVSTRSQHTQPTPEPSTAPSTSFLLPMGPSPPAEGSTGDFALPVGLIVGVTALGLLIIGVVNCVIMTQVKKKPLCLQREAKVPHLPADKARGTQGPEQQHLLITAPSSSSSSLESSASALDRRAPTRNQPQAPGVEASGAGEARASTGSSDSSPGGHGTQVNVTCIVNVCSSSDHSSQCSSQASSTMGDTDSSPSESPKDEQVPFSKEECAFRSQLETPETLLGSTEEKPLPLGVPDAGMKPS
Description: flow cytometry competition, CHO cells with human TNFR2, antibody 0.039 µg/mL, Biotin-hTNFα 0.5 µg/mL. As for the experimental part: 30 μl of Biotin-hTNFα (Acro Biosystems, Cat #: TNA-H82E1) was added to each well (with a final concentration of 0.5 μg/mL in each well). The cells with Biotin-hTNFα and the antibodies were incubated at 4° C. for 30 minutes.
The signals for AF647 and PE were determined by flow cytometry (Thermo Attune NX).
In general terms: Flow cytometry measures light scatter and fluorescence of single cells or particles in a stream.

For assay [2], the target named is T2, ΔCRD1-TNFR2 protein (with CRD1 deletion), on CHO-S cells (human, UniProt P20333 23-461).
T2 construct: also called CHO-SΔCRD1-TNFR2
T2 sequence: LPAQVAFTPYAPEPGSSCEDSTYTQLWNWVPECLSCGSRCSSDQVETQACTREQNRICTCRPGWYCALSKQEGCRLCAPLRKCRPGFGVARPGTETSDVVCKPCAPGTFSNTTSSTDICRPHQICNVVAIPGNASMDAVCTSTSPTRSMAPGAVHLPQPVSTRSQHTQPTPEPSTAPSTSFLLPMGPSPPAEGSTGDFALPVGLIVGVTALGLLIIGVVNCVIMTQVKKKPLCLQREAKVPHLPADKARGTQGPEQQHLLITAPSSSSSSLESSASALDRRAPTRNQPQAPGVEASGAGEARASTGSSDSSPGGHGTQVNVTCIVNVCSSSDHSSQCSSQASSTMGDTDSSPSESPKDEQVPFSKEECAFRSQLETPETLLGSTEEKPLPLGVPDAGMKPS
Description: FACS on CHO-S cells with ΔCRD1-TNFR2, AF647 anti-human IgG Fc secondary. An excerpt: TNFR2 has four cysteine rich domains (CRD). In another experiment, FACS was used to detect the binding of anti-hTNFR2 antibodies to TNFR2 proteins with different structural domains. Secondary antibody (Alexa Fluor® 647 AffiniPure F(ab′) 2 Fragment Goat Anti-Human IgG, Fcγ fragment specific, Jackson ImmunoResearch Laboratories, Inc., Cat #: 151524) was used. The fluorescence-labeled secondary antibody can attach to the Fc region of the anti-hTNFR2 antibodies so that the anti-hTNFR2 antibodies that are bound to the ΔCRD cells can be detected by FACS. Specifically, ΔCRD1-TNFR2 protein (with CRD1 deleteion), ΔCRD2-TNFR2 protein (with CRD2 deleteion), ΔCRD3-TNFR2 protein (with CRD3 deleteion) or ΔCRD4-TNFR2 protein (with CRD4 deleteion) were expressed in CHO-S cells respectively, and then the binding between the cells and different anti-hTNFR2 antibodies was detected.

The target in assay [3] is T3, His-tagged human TNFR2 (Human TNFR2/CD120b/TNFRSF1B Protein, His Tag, Acrobiosystems Cat #: TN2-5227) (human, UniProt P20333 23-257).
T3 construct: Bought protein; also called hTNFR2-His; Recombinant human TNFR2 proteins with His-tag; not shown: His tag
T3 sequence: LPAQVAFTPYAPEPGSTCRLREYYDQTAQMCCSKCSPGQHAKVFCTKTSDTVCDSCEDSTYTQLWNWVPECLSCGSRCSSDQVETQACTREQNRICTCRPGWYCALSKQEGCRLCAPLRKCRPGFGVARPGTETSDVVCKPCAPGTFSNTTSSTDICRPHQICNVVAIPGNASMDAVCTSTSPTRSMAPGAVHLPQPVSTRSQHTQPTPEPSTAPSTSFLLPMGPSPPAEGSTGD
Description: SPR Biacore 8K, antibody captured on Protein A chip, hTNFR2-His as analyte, 1:1 model. Here is the method:
The binding affinity of the anti-TNFR2 antibodies to human TNFR2 and TNFR1 (Tumor necrosis factor receptor 1) were measured using surface plasmon resonance (SPR) using Biacore (Biacore, INC, Piscataway NJ) 8K biosensor equipped with pre-immobilized Protein A sensor chips.
(§1) Purified anti-TNFR2 antibodies were diluted to 1 μg/mL and then injected into the Biacore 8K biosensor at 10 μL/min for about 50 seconds to achieve a desired protein density (e.g., about 50 response units (RU)). […] Dissociation was monitored for 600 seconds. The chip was regenerated after the last injection of each titration with Glycine (pH 2.0, 30 μL/min for 30 seconds).
A general note: Surface plasmon resonance follows binding to a sensor surface in real time, without labels.

In assay [4] the target is T4, His-tagged monkey (Crab-eating monkey) TNFR2 (Sino Biological, Cat #: 90102-C08H) (monkey (Crab-eating monkey), UniProt P20333 27-257 (human entry)).
T4 construct: Bought protein; also called fTNFR2-His; not shown: His tag
T4 chain: T3 sequence with L1E, A3R, Q4A, S16G, S36P, P117Q, N164H, E210A, S216G, M223V
Kind of assay: SPR Biacore 8K, antibody captured on Protein A chip, fTNFR2-His as analyte. As for the experimental part:
as §1
Similar to the aforementioned binding affinity experiment, the binding affinities of the anti-TNFR2 antibodies BC-1B6-IgG1, BC-1C3-IgG1 and BC-1F4-IgG1 to His-tagged monkey (Crab-eating monkey) TNFR2 (fTNFR2-His, Sino Biological, Cat #: 90102-C08H) were measured.

B1: BC-1A8-IgG1 (antibody, V domains shown)
VH: QVQLQQSGPGLVKPSQTLSLTCAISGDSVSSNSAAWNWIRQSPSRGLEWLGRTYYRSKWYNDYALSVKSRITINPETSKNQFSLQLNSVTPEDTAVYYCAREDGVGGTKDYFDYWGQGTLVTVSS
VL: DIQMTQSPSSLSASVGDRVTITCQASQDIDNYLNWYQQKPGKAPKLLIYDVSNLEIGVPSRFSGSGSGTDFTFTISSLQPEDIATYYCQQYDNLPLTFGQGTRLEIK
notes: Fully human VH/VL joined to the human IgG1 subtype, kappa light chain (RenMab mice)
On to B1, for which the “percentage of tested cells that had Streptavidin signals” value (from here on “percentage”) in assay [1] was found to be 62.8%. In assay [2], the “positive rate of binding (% of cells)” value came out at 64.6%. In assay [3], the Kd came out at 1.36 nM, the koff was 0.00126 s⁻¹ and the kon was determined as 924000 M⁻¹ s⁻¹.

B2: BC-1F4-IgG1 (antibody, V domains shown)
VH: B1 VH with N32D, A34S, A64T, L65V, E76D
VL: B1 VL with D30S, V51A, I56T, S76N, I83F, Y87F, L96I
notes: Human VH/VL joined to the human IgG1 subtype
As to B2, the “percentage” value in assay [1] is 84.6%. The “positive rate of binding (% of cells)” value in assay [2] is 53.1%. In assay [4], this molecule gave a Kd of 20.1 nM, a koff of 0.0109 s⁻¹ and a kon of 541000 M⁻¹ s⁻¹. In assay [3], this molecule displayed a Kd of 2.21 nM, a koff of 0.00159 s⁻¹ and an on-rate constant (kon) of 718000 M⁻¹ s⁻¹.

B3: BC-1B6-IgG1 (antibody, V domains shown)
VH: QVQLVESGGGVVQPGRSLRLSCAASGFTFSNFGMHWVRQAPGKGLEWVAVIWYEGSDKYYADSVKGRFTISRDNSKNTLYLQMNSLRAEDTAVYYCARDSSWGFLLYGMDVWGQGTTVTVSS
VL: DVVMTQSPLSLPVTLGQPASISCRSSRSLEYSDGNTYLNWFQQRPGQSPRRLIYKVSNRDSGVPDRFSGSGSGTAFTLKISGVEAEDVGVYYCMQGTHWPPTFGGGTKVEIK
notes: as for B2
B3: in assay [1], the “percentage” value was determined as 78.9%. In assay [4], binding was put at a Kd of 17.5 nM, the koff came to 0.00547 s⁻¹ and the kon amounted to 313000 M⁻¹ s⁻¹. For the same molecule, in assay [3], binding was characterised by a dissociation constant (Kd) of 3.89 nM, the koff came to 0.00644 s⁻¹ and the kon was determined as 1.66e+06 M⁻¹ s⁻¹.

B4: BC-1C3-IgG1 (antibody, V domains shown)
VH: QVQLVESGGGVVHPGKSLRLSCAASGFTFNIYGMHWVRQAPGKGLEWVALISYDGNDKYFADSVKGRFTISRDNSKNTLYLQMNSLRAEDTAVYYCAKAVDTAVVTFFDYWGQGTLVTVSS
VL: EIVMTQSPVTLSVSPGERATLSCRASQSVSSNLAWYQQKPGQAPRLLIYSASTRATGIPARFSGSGSGTEFTLTISSLQSEDLAVYYCQQYSNWPFTFGPGTKVDIK
notes: as for B2
With B4, the “percentage” value in assay [1] is 77%. In addition, in assay [2], the “positive rate of binding (% of cells)” value was 72.6%. Also, in assay [4], the Kd was 118 nM, the koff is 0.0221 s⁻¹ and the kon came out at 187000 M⁻¹ s⁻¹. In assay [3], the Kd is 9.5 nM, the koff was 0.00115 s⁻¹ and the kon was 121000 M⁻¹ s⁻¹.

B5: BC-1F10-IgG1 (antibody, V domains shown)
VH: QVQLQQWGAGLLKPSETLSLICAVYDGSFSGDYWSWIRQPPGKGLEWIGEINHSGSTNYNPSLKSRVTISVDTSKNQFSLKLSSVTAADTAVYYCARGHWNYDYYYGMDVWGQGTTVTVSS
VL: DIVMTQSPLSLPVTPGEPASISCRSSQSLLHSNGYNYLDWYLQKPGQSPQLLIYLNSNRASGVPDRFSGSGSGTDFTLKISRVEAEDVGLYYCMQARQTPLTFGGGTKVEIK
notes: as for B2
Take B5: the “percentage” value in assay [1] came to 59%. In addition, in assay [2], the “positive rate of binding (% of cells)” value came to 55.3%. In assay [3], this molecule showed a Kd of 5.1 nM, a koff of 0.000467 s⁻¹ and a kon of 91500 M⁻¹ s⁻¹.

By Kd is commonly meant the constant that tells how readily two partners part at equilibrium. The koff is the rate constant with which the complex falls apart. In general, kon refers to a measure of how fast the partners come together.
